From US20130273020A1, “ANTIFUNGAL COMPOSITION” (COMVITA NEW ZEALAND LIMITED, priority 2010, published 2013) come the findings set out here.

Holding throughout (assay type): cell-based
Assay [1] has as its system Candida albicans. Description: Candida albicans growth by optical density, every 2 hrs up to 24 hrs (Example 1). The note with it: single component alone, FIGS. 1 and 2. Here is the method:
In this example, a manuka honey was mixed with lactoferrin at varying concentrations and the degree of Candida albicans growth was measured and compared to each of the individual components alone. Samples of honey alone being a manuka honey with a UMF rating of ˜15 were collected. The honey was diluted with distilled water to honey concentrations of 12.5, 11.25, 10, 8.75, 7.5 and 0% (w/v). Samples of lactoferrin alone were also collected and similarly diluted with distilled water to concentrations of 5 mg/mL (5%), 4.5 mg/mL (4.5%), 4 mg/mL (4%), 3.5 mg/mL (3.5%), 3 mg/mL (3%) and 0% (w/v). Mixed samples were then produced using honey concentrations of 12.5, 11.25, 10, 8.75, 7.5 and 0% (w/v) along with lactoferrin at a concentration of 5 mg/mL of lactoferrin. Four replications were completed for each of the samples. Microbial growth for each of the samples was then measured every 2 hrs continuously for up to 24 hrs, determined by measuring the optical density of the mixture.

Assay [2] deals with Candida albicans. The experiment in a line: Candida albicans growth curves at 28° C. by absorbance (540 nm), percentage inhibition vs media alone (Examples 2 and 3). To be noted: lactoferrin used in isolation, 0.2% and 0.6% w/v; FIG. 5. Here is the method:
A further experiment was completed measuring the growth curves of Candida albicans grown at 28° C. measured by absorbance (540 nm). […] Catalase was added to remove any confounding effects from hydrogen peroxide. As may be appreciated, the peroxide effect can vary between and within honeys giving rise to poor results that are difficult to interpret. Removal of the peroxide effect gives clearer result. It should be noted that a lower growth temperature than usual was used to prevent filamentous growth, which is an artifact of these Candida assays. The results found were clean easily measurable results and were verified under a microscope to be accurate. A further experiment was completed measuring the percentage inhibition expressed as a proportion of Candida albicans growth in media alone. […] Catalase was added to remove the peroxide effect noted above.

Assay [3] concerns Candida albicans. The experiment in a line: Candida albicans broth microtitre plate growth assay, absorbance at 650 nm, 28° C. (Example 4). The note with it: honey alone (10% w/v, catalase) or lactoferrin alone (2.5-10 mg/ml); FIG. 6. Here is the method: A further set of Candida albicans repeat trials were completed where the growth of Candida albicans cultures in broth was measured when subjected to a 10% w/v manuka honey with catalase and lactoferrin treatments ranging from 2.5-10 mg/ml. To prevent filamentous growth, the assay temperature was 28° C. as used previously. The assay was a broth microtitre plate set-up. Growth was measured by absorbance at 650 nm. Catalase was added to remove the peroxide effect noted above.

B1: lactoferrin (protein, UniProt P02788 20-710, looked up)
Lactotransferrin: GRRRSVQWCAVSQPEATKCFQWQRNMRKVRGPPVSCIKRDSPIQCIQAIAENRADAVTLDGGFIYEAGLAPYKLRPVAAEVYGTERQPRTHYYAVAVVKKGGSFQLNELQGLKSCHTGLRRTAGWNVPIGTLRPFLNWTGPPEPIEAAVARFFSASCVPGADKGQFPNLCRLCAGTGENKCAFSSQEPYFSYSGAFKCLRDGAGDVAFIRESTVFEDLSDEAERDEYELLCPDNTRKPVDKFKDCHLARVPSHAVVARSVNGKEDAIWNLLRQAQEKFGKDKSPKFQLFGSPSGQKDLLFKDSAIGFSRVPPRIDSGLYLGSGYFTAIQNLRKSEEEVAARRARVVWCAVGEQELRKCNQWSGLSEGSVTCSSASTTEDCIALVLKGEADAMSLDGGYVYTAGKCGLVPVLAENYKSQQSSDPDPNCVDRPVEGYLAVAVVRRSDTSLTWNSVKGKKSCHTAVDRTAGWNIPMGLLFNQTGSCKFDEYFSQSCAPGSDPRSNLCALCIGDEQGENKCVPNSNERYYGYTGAFRCLAENAGDVAFVKDVTVLQNTDGNNNEAWAKDLKLADFALLCLDGKRKPVTEARSCHLAMAPNHAVVSRMDKVERLKQVLLHQQAKFGRNGSDCPDKFCLFQSETKNLLFNDNTECLARLHGKTTYEKYLGPQYVAGITNLKKCSTSPLLEACEFLRK
notes: metal chelator that scavenges free transition metal ions, specifically iron
In the case of B1, the “difference to controls without honey or lactoferrin after 24 hours” value with Candida albicans [1] (after 24 hours) is recorded as “little difference”. In addition, in the assay on Candida albicans [1] (honey 7.5-12.5% (w/v) or lactoferrin 3-5 mg/mL), the “degree of inhibition of microbial growth” value is reported as “relatively low”. Moreover, in the assay on Candida albicans [2], the “percentage inhibition as a proportion of growth in media alone” value is “negligible effects”. Besides, the inhibition of growth result with Candida albicans [3] is given as “minimal inhibition”.
